Assay results reported in article PMC3937308.

Biological target: 6HisRsmA (RsmAxcc) (Xanthomonas citri subsp. citri strain 306) (UniProt Q8PLP9)
Assay: EMSA
Conditions: 10 mM HEPES pH 7.3, 20 mM KCl, 1 mM MgCl2, 1 mM DTT, 5% glycerol, 0.1 µg/µL yeast tRNA, 20 U RNasin, 25 °C 20 min; 5% native PAGE

Sequence of 6HisRsmA (RsmAxcc) (Xanthomonas citri subsp. citri strain 306) (Q8PLP9 whole entry): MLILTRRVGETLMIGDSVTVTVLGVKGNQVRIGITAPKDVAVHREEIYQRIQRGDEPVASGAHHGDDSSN

## hrpG 54-189
  binding signal (fold less shift than hrpG 1-189): 8
